Assays:
[1] = molecular target: Env (gp120) of HIV-1 strain CAP45.2.00.G3 (HIV-1)
[2] = molecular target: Env (gp120) of HIV-1 strain TRO.11 (HIV-1)
[3] = molecular target: Env (gp120) of HIV-1 strain CAP210.2.00.E8 (HIV-1)
[4] = molecular target: Env (gp120) of HIV-1 strain Q769.d22 (HIV-1)
[5] = molecular target: Env (gp120) of HIV-1 strain C1080.c03 (HIV-1)
[6] = molecular target: Env (gp120) of HIV-1 strain 6480.v4.c25 (HIV-1)
[7] = molecular target: Env (gp120) of HIV-1 strain ZM247v1(Rev-) (HIV-1)
[8] = molecular target: Env (gp120) of HIV-1 strain Q461.e2 (HIV-1)
[9] = molecular target: Env (gp120) of HIV-1 strain R2184.c04 (HIV-1)
[10] = molecular target: Env (gp120) of HIV-1 strain CNE53 (HIV-1)
[11] = molecular target: Env (gp120) of HIV-1 strain C2101.c01 (HIV-1)
[12] = molecular target: Env (gp120) of HIV-1 strain 1056_10_TA11_1826 (HIV-1)
[13] = molecular target: Env (gp120) of HIV-1 strain 231965.c01 (HIV-1)
[14] = molecular target: Env (gp120) of HIV-1 strain 62357_14_D3_4589 (HIV-1)
[15] = molecular target: Env (gp120) of HIV-1 strain PVO.4 (HIV-1)
[16] = molecular target: Env (gp120) of HIV-1 strain T250-4 (HIV-1)
[17] = molecular target: Env (gp120) of HIV-1 strain ZM53M.PB12 (HIV-1)
[18] = molecular target: Env (gp120) of HIV-1 strain Ce1176_A3 (HIV-1)
[19] = molecular target: Env (gp120) of HIV-1 strain T255-34 (HIV-1)
[20] = molecular target: Env (gp120) of HIV-1 strain Du172.17 (HIV-1)
[21] = molecular target: Env (gp120) of HIV-1 strain HIV-16845-2.22 (HIV-1)
[22] = molecular target: Env (gp120) of HIV-1 strain Ce0393_C3 (HIV-1)
[23] = molecular target: Env (gp120) of HIV-1 strain 3016.v5.c45 (HIV-1)
[24] = molecular target: Env (gp120) of HIV-1 strain T278-50 (HIV-1)
[25] = molecular target: Env (gp120) of HIV-1 strain Ce2060_G9 (HIV-1)
[26] = molecular target: Env (gp120) of HIV-1 strain CNE17 (HIV-1)
[27] = molecular target: Env (gp120) of HIV-1 strain QH0692.42 (HIV-1)
[28] = molecular target: Env (gp120) of HIV-1 strain T251-18 (HIV-1)
[29] = molecular target: Env (gp120) of HIV-1 strain CNE58 (HIV-1)
[30] = molecular target: Env (gp120) of HIV-1 strain 0330.v4.c3 (HIV-1)
[31] = molecular target: Env (gp120) of HIV-1 strain Q842.d12 (HIV-1)
[32] = molecular target: Env (gp120) of HIV-1 strain Du156.12 (HIV-1)
[33] = molecular target: Env (gp120) of HIV-1 strain WITO4160.33 (HIV-1)
[34] = molecular target: Env (gp120) of HIV-1 strain C3347.c11 (HIV-1)
[35] = molecular target: Env (gp120) of HIV-1 strain Q23.17 (HIV-1)
[36] = molecular target: Env (gp120) of HIV-1 strain P0402_c2_11 (HIV-1)
[37] = molecular target: Env (gp120) of HIV-1 strain RHPA4259.7 (HIV-1)
[38] = molecular target: Env (gp120) of HIV-1 strain 6540.v4.c1 (HIV-1)
[39] = molecular target: Env (gp120) of HIV-1 strain 211-9 (HIV-1)
[40] = molecular target: Env (gp120) of HIV-1 strain Q259.d2.17 (HIV-1)
[41] = molecular target: Env (gp120) of HIV-1 strain Ce0682_E4 (HIV-1)
[42] = molecular target: Env (gp120) of HIV-1 strain 0815.v3.c3 (HIV-1)
[43] = molecular target: Env (gp120) of HIV-1 strain CNE21 (HIV-1)
[44] = molecular target: Env (gp120) of HIV-1 strain ZM249M.PL1 (HIV-1)
[45] = molecular target: Env (gp120) of HIV-1 strain TRJO4551.58 (HIV-1)
[46] = molecular target: Env (gp120) of HIV-1 strain ZM197M.PB7 (HIV-1)
[47] = molecular target: Env (gp120) of HIV-1 strain REJO4541.67 (HIV-1)
[48] = molecular target: Env (gp120) of HIV-1 strain Ce703010054_2A2 (HIV-1)
[49] = molecular target: Env (gp120) of HIV-1 strain SC422661.8 (HIV-1)
[50] = molecular target: Env (gp120) of HIV-1 strain AC10.0.29 (HIV-1)

In the case of NIH45-46 IgG (antibody), the neutralization IC50 [1] is reported as over 50 mg/L, the neutralization IC50 [2] is reported as 1 mg/L and the neutralization IC50 [3] is reported as over 50 mg/L. The neutralization IC50 [4] was 0.009 mg/L, the neutralization IC50 [5] was 2.48 mg/L and the neutralization IC50 [6] was 0.032 mg/L. For the same substance, the neutralization IC50 [7] was 2.94 mg/L, the neutralization IC50 [8] was 0.076 mg/L and the neutralization IC50 [9] was 0.034 mg/L. The neutralization IC50 [10] was 0.008 mg/L, the neutralization IC50 [11] was 4.24 mg/L and the neutralization IC50 [12] was 0.094 mg/L. The neutralization IC50 [13] was 0.051 mg/L, the neutralization IC50 [14] was 0.06 mg/L and the neutralization IC50 [15] was 0.12 mg/L. For the same substance, the neutralization IC50 [16] was over 50 mg/L, the neutralization IC50 [17] was 0.175 mg/L and the neutralization IC50 [18] was 0.93 mg/L. It also gave a neutralization IC50 [19] of 0.71 mg/L, a neutralization IC50 [20] of over 50 mg/L and a neutralization IC50 [21] of 5 mg/L. It also gave a neutralization IC50 [22] of 0.334 mg/L, a neutralization IC50 [23] of over 50 mg/L and a neutralization IC50 [24] of over 50 mg/L. For the same substance, the neutralization IC50 [25] was 0.058 mg/L, the neutralization IC50 [26] was 0.261 mg/L and the neutralization IC50 [27] was 0.72 mg/L. The neutralization IC50 [28] was 1.35 mg/L, the neutralization IC50 [29] was 0.43 mg/L and the neutralization IC50 [30] was 0.09 mg/L. The neutralization IC50 [31] was 0.031 mg/L, the neutralization IC50 [32] was 0.02 mg/L and the neutralization IC50 [33] was 0.06 mg/L. For the same substance, the neutralization IC50 [34] was 0.029 mg/L, the neutralization IC50 [35] was 0.14 mg/L and the neutralization IC50 [36] was 0.073 mg/L. It also gave a neutralization IC50 [37] of 0.017 mg/L, a neutralization IC50 [38] of over 50 mg/L and a neutralization IC50 [39] of over 50 mg/L. It also gave a neutralization IC50 [40] of 0.043 mg/L, a neutralization IC50 [41] of 0.054 mg/L and a neutralization IC50 [42] of 0.014 mg/L. It also gave a neutralization IC50 [43] of 6.01 mg/L, a neutralization IC50 [44] of 0.017 mg/L and a neutralization IC50 [45] of 0.04 mg/L. The neutralization IC50 [46] was 0.15 mg/L, the neutralization IC50 [47] was 0.014 mg/L and the neutralization IC50 [48] was 0.159 mg/L.

For NIH45-46^G54F IgG (antibody), the neutralization IC50 [49] was 0.02 mg/L, the neutralization IC50 [50] was 0.3 mg/L and the neutralization IC50 [1] was over 50 mg/L. For the same substance, the neutralization IC50 [2] was 0.08 mg/L, the neutralization IC50 [3] was over 50 mg/L and the neutralization IC50 [4] was 0.005 mg/L. It also gave a neutralization IC50 [5] of 0.36 mg/L, a neutralization IC50 [6] of 0.014 mg/L and a neutralization IC50 [7] of 0.28 mg/L. For the same substance, the neutralization IC50 [8] was 0.03 mg/L, the neutralization IC50 [9] was 0.015 mg/L and the neutralization IC50 [10] was 0.005 mg/L. The neutralization IC50 [11] was 0.11 mg/L, the neutralization IC50 [12] was 0.064 mg/L and the neutralization IC50 [13] was 0.022 mg/L. The neutralization IC50 [14] was 0.04 mg/L, the neutralization IC50 [15] was 0.07 mg/L and the neutralization IC50 [16] was over 50 mg/L. The neutralization IC50 [17] was 0.08 mg/L, the neutralization IC50 [18] was 0.24 mg/L and the neutralization IC50 [19] was 0.03 mg/L. The neutralization IC50 [20] was over 50 mg/L, the neutralization IC50 [21] was 0.59 mg/L and the neutralization IC50 [22] was 0.04 mg/L. For the same substance, the neutralization IC50 [23] was 5.82 mg/L, the neutralization IC50 [24] was over 50 mg/L and the neutralization IC50 [25] was 0.022 mg/L. It also gave a neutralization IC50 [26] of 0.075 mg/L, a neutralization IC50 [27] of 0.56 mg/L and a neutralization IC50 [28] of 0.41 mg/L. The neutralization IC50 [29] was 0.04 mg/L, the neutralization IC50 [30] was 0.04 mg/L and the neutralization IC50 [31] was 0.011 mg/L. The neutralization IC50 [32] was under 0.001 mg/L, the neutralization IC50 [33] was 0.02 mg/L and the neutralization IC50 [34] was 0.015 mg/L. It also gave a neutralization IC50 [35] of 0.03 mg/L, a neutralization IC50 [36] of 0.008 mg/L and a neutralization IC50 [37] of 0.005 mg/L. The neutralization IC50 [38] was over 50 mg/L, the neutralization IC50 [39] was over 50 mg/L and the neutralization IC50 [40] was 0.009 mg/L. It also gave a neutralization IC50 [41] of 0.011 mg/L, a neutralization IC50 [42] of under 0.001 mg/L and a neutralization IC50 [43] of 0.12 mg/L. It also gave a neutralization IC50 [44] of 0.004 mg/L, a neutralization IC50 [45] of 0.03 mg/L and a neutralization IC50 [46] of 0.09 mg/L. For the same substance, the neutralization IC50 [47] was 0.007 mg/L and the neutralization IC50 [48] was 0.02 mg/L.
